Sequences and labels used below:
B1: Transient receptor potential cation channel subfamily V member 5 (Oryctolagus cuniculus (Rabbit)), Q9XSM3 (parent)
chain: MGACPPKAKGPWAQLQKLLISWPVGEQDWEQYRDRVNMLQQERIRDSPLLQAAKENDLRLLKILLLNQSCDFQQRGAVGETALHVAALYDNLEAATLLMEAAPELAKEPALCEPFVGQTALHIAVMNQNLNLVRALLARGASVSARATGAAFRRSPHNLIYYGEHPLSFAACVGSEEIVRLLIEHGADIRAQDSLGNTVLHILILQPNKTFACQMYNLLLSYDEHSDHLQSLELVPNHQGLTPFKLAGVEGNTVMFQHLMQKRKHVQWTCGPLTSTLYDLTEIDSWGEELSFLELVVSSKKREARQILEQTPVKELVSFKWKKYGRPYFCVLASLYILYMICFTTCCIYRPLKLRDDNRTDPRDITILQQKLLQEAYVTHQDNIRLVGELVTVTGAVIILLLEIPDIFRVGASRYFGQTILGGPFHVIIITYASLVLLTMVMRLTNMNGEVVPLSFALVLGWCSVMYFARGFQMLGPFTIMIQKMIFGDLMRFCWLMAVVILGFASAFHITFQTEDPNNLGEFSDYPTALFSTFELFLTIIDGPANYSVDLPFMYCITYAAFAIIATLLMLNLFIAMMGDTHWRVAQERDELWRAQVVATTVMLERKMPRFLWPRSGICGYEYGLGDRWFLRVENHHDQNPLRVLRYVEAFKCSDKEDGQEQLSEKRPSTVESGMLSRASVAFQTPSLSRTTSQSSNSHRGWEILRRNTLGHLNLGLDLGEGDGEEVYHF

The results in this text go back to IntAct's records for PubMed 18606998.

The experiment covers variants of B1. The conditions noted are these: with leg1_human LGALS1, P09382.
leg1_human LGALS1, P09382, sequence (P09382 whole entry): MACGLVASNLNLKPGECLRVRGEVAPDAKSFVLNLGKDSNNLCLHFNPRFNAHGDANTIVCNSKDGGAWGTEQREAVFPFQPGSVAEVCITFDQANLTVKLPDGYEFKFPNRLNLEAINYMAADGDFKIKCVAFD
As to N358Q, the “effect of a mutation on the interaction” value is “disrupting interaction”.
